Results on 5 molecules are retold here after patent publication US20100040611A1 (Merck Sharp & Dohme, published 2010).

Substitutions are numbered along the chain they refer to. Like-named read-outs stand apart in the source and are kept apart here.

Holding throughout (test): cell-based or functional assay
Experiment [1] addresses T1, recombinant human PCSK9, V5-, His-tagged (human, UniProt Q8NBP7 31-692, limits assumed).
In experiment [2] the target is T1, recombinant human PCSK9, V5-, His-tagged. This is another data set of the same source.
Experiment [3] has the same target. This is another data set of the same source.
For experiment [4] the target is unchanged. This is another data set of the same source.
For experiment [5] the target is unchanged. The source holds these as a separate data set.

T1 sequence (Q8NBP7 31-692 limits assumed): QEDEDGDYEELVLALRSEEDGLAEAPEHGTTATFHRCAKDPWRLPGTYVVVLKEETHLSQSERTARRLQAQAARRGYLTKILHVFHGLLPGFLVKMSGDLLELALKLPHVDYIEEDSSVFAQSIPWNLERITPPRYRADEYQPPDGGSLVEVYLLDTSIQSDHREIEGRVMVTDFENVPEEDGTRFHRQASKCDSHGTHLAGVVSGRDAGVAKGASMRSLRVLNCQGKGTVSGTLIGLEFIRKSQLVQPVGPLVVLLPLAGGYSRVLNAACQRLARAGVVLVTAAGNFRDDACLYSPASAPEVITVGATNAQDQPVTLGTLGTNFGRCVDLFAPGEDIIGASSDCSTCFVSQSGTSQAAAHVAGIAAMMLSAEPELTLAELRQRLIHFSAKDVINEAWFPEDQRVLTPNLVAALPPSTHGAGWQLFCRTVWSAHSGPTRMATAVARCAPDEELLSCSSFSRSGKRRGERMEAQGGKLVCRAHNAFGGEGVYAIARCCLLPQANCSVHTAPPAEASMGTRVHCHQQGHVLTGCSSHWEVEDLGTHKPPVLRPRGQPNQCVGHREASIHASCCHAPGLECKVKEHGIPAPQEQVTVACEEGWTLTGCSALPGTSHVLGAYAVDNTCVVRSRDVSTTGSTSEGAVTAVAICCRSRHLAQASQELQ

B1: 3BX5C01 (Fab, V domains shown)
VH: QVQLVQSGAEVKKPGESLKISCKGSGYSFTSYGISWVRQMPGKGLEWMGMIDPSDSFTTYSPSFQGQVTISADKSISTAYLQWSSLKASDTAMYYCARGYYFTYALQPMDHWGQGTLVTVSS
VL: DIELTQPPSVSVAPGQTARISCSGDNLRDYIVHWYQQKPGQAPVLVIYDDSNRPSGIPERFSGSNSGNTATLTISGTQAEDEADYYCGFDNGGDIDVFGGGTKLTVLG
In the case of B1, in experiment [1], the “IC50: reversal of PCSK9-dependent loss of cellular diI-LDL uptake (Exopolar assay), Fab titrated against a fixed 25 µg/ml PCSK9” value came to 1250 nM.

B2: 3CX4B08 (Fab, V domains shown)
VH: QVQLVESGGGLVQPGGSLRLSCAASGFTFSNYTMNWVRQAPGKGLEWVSFISSSSSETYYADSVKGRFTISRDNSKNTLYLQMNSLRAEDTAVYYCARGYGDMVDLWGQGTLVTVSS
VL: DIELTQPPSVSVAPGQTARISCSGDSIPTYYVAWYQQKPGQAPVLVIYSDTDRPSGIPERFSGSNSGNTATLTISGTQAEDEADYYCQSFDNHGYHVFGGGTKLTVLG
In the case of B2, the “IC50: reversal of PCSK9-dependent loss of cellular diI-LDL uptake (Exopolar assay), Fab titrated against a fixed 25 µg/ml PCSK9” value in experiment [2] was 127 nM.

B3: 3CX2A06 (Fab, V domains shown)
VH: QVQLVQSGAEVKKPGESLKISCKGSGYSFSNFWIAWVRQMPGKGLEWMGIIDPSDSWTRYSPSFQGQVTISADKSISTAYLQWSSLKASDTAMYYCARGDGQDFDNWGQGTLVTVSS
VL: DIQMTQSPSSLSASVGDRVTITCRASQNINSYLNWYQQKPGKAPKLLIYAASSLQSGVPSRFSGSGSGTDFTLTISSLQPEDFAVYYCLQNYDLPNTFGQGTKVEIKR
Consider B3, for which, in experiment [3], the “IC50: reversal of PCSK9-dependent loss of cellular diI-LDL uptake (Exopolar assay), Fab titrated against a fixed 25 µg/ml PCSK9” value amounted to 107 nM.

B4: 3CX3D02 (Fab, V domains shown)
VH: QVQLVQSGAEVKKPGESLKISCKGSGYSFTNSWIGWVRQMPGKGLEWMGIIYPSDSYTIYSPSFQGQVTISADKSISTAYLQWSSLKASDTAMYYCARGGGYYYALMDVWAQGTLVTVSS
VL: B3 VL with N28T, N30S, S31T, Y32W, V85T, N91D, Y92S, D93S, N96L
For B4, in experiment [4], the “IC50: reversal of PCSK9-dependent loss of cellular diI-LDL uptake (Exopolar assay), Fab titrated against a fixed 25 µg/ml PCSK9” value worked out at 269 nM.

B5: 1CX1G08 (Fab, V domains shown)
VH: QVQLVESGGGLVQPGGSLRLSCAASGFTFSDYWVSWVRQAPGKGLEWVSFISYDGSSTYYADSVKGRFTISRDNSKNTLYLQMNSLRAEDTAVYYCARTYFEGVDVWGQGTLVTVSS
VL: DIELTQPPSVSVAPGQTARISCSGDNIGTYYVHWYQQKPGQAPVLVIYDDSNRPSGIPERFSGSNSGNTATLTISGTQAEDEADYYCGTWDNTSFNLVFGGGTKLTVLG
Turning to B5, the “IC50: reversal of PCSK9-dependent loss of cellular diI-LDL uptake (Exopolar assay), Fab titrated against a fixed 25 µg/ml PCSK9” value in experiment [5] came out at 267 nM.
